Stoichiometry N data for two molecules are collected here from publication PMC9206684.

The target of assay [1] is GST-tagged IGF2BP2 (human), Q9Y6M1. In words: cross-linking; cell suspension with 1.25 mM DSS, 30 min, 37 °C; nondenaturing lysis and PAGE, Western blot; monomer 65 kDa, homodimer 130 kDa; HEK293T (GST-IGF2BP2) and OVCAR3/CAOV3 (endogenous, with Ct-OATP1B3 or IGF2BP2 knockdown or overexpression). Particulars: remark: other sources report otherwise. In general terms: Immunoblotting shows a protein as a band on a membrane.

The target of assay [2] is insulin-like growth factor 2 mRNA-binding protein 2 (IGF2BP2), endogenous (human (endogenous in CAOV3 and OVCAR3)), Q9Y6M1. Described as above. Particulars: remark: other sources report otherwise.

B1: GST-tagged IGF2BP2, Q9Y6M1 1-599 (natural protein)
chain: MMNKLYIGNLSPAVTADDLRQLFGDRKLPLAGQVLLKSGYAFVDYPDQNWAIRAIETLSGKVELHGKIMEVDYSVSKKLRSRKIQIRNIPPHLQWEVLDGLLAQYGTVENVEQVNTDTETAVVNVTYATREEAKIAMEKLSGHQFENYSFKISYIPDEEVSSPSPPQRAQRGDHSSREQGHAPGGTSQARQIDFPLRILVPTQFVGAIIGKEGLTIKNITKQTQSRVDIHRKENSGAAEKPVTIHATPEGTSEACRMILEIMQKEADETKLAEEIPLKILAHNGLVGRLIGKEGRNLKKIEHETGTKITISSLQDLSIYNPERTITVKGTVEACASAEIEIMKKLREAFENDMLAVNQQANLIPGLNLSALGIFSTGLSVLSPPAGPRGAPPAAPYHPFTTHSGYFSSLYPHHQFGPFPHHHSYPEQEIVNLFIPTQAVGAIIGKKGAHIKQLARFAGASIKIAPAEGPDVSERMVIITGPPEAQFKAQGRIFGKLKEENFFNPKEEVKLEAHIRVPSSTAGRVIGKGGKTVNELQNLTSAEVIVPRDQTPDENEEVIVRIIGHFFASQTAQRKIREIVQQVKQQEQKYPQGVASQRSK
B1: in assay [1], the stoichiometry N (in general, a count of units in the complex or per binding partner) is 2.

B2: insulin-like growth factor 2 mRNA-binding protein 2 (IGF2BP2), endogenous, Q9Y6M1 1-599 (natural protein)
chain: B1 chain
As for B2, the stoichiometry N in assay [2] came to 2.
